Results published in US20210395370A1 (AstraZeneca / MedImmune, published 2021).

Tests used:
[1] = molecular target: T1, CD22 receptor on the Daudi cell line (human, UniProt P20273 20-847); assay: cell-based or functional assay
T1 sequence (looked up): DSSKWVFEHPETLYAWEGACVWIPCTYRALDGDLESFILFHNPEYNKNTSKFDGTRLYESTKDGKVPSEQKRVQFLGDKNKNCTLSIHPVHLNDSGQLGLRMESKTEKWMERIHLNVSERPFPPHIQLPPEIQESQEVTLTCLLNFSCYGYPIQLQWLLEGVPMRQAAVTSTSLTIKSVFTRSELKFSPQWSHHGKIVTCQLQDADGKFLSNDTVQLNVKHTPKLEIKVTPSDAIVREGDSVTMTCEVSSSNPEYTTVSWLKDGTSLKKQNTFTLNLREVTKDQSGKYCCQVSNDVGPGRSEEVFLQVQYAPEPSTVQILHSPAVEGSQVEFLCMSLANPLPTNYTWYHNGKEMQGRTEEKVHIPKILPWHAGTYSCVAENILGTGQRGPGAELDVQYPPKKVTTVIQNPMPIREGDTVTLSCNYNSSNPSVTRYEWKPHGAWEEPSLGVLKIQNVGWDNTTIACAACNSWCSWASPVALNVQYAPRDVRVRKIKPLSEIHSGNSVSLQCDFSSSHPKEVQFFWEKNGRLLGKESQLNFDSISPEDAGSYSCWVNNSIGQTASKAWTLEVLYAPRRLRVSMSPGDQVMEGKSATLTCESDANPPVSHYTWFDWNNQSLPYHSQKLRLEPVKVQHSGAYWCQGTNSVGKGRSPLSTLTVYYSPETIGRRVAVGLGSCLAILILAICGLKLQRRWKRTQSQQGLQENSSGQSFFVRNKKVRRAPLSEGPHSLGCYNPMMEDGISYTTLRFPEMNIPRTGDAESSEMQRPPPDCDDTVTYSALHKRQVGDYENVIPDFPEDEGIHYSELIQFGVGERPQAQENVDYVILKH

[2] = molecular target: T1, CD22 receptor on the Daudi cell line; assay: cell-based or functional assay; remark: listed apart in the source

B1: CAT-8015 (other)
VH: MEVQLVESGGGLVKPGGSLKLSCAASGFAFSIYDMSWVRQTPEKCLEWVAYISSGGGTTYYPDTVKGRFTISRDNAKNTLYLQMSSLKSEDTAMYYCARHSGYGTHWGVLFAYWGQGTLVTVSAKASGGPEGGSLAALTAHQACHLPLETFTRHRQPRGWEQLEQCGYPVQRLVALYLAARLSWNQVDQVIRNALASPGSGGDLGEAIREQPEQARLALTLAAAESERFVRQGTGNDEAGAANGPADSGDALLERNYPTGAEFLGDGGDVSFSTRGTQNWTVERLLQAHRQLEERGYVFVGYHGTFLEAAQSIVFGGVRARSQDLDAIWRGFYIAGDPALAYGYAQDQEPDARGRIRNGALLRVYVPRSSLPGFYRTSLTLAAPEAAGEVERLIGHPLPLRLDAITGPEEEGGRLETILGWPLAERTVVIPSAIPTDPRNVGGDLDPSSIPDKEQAISALPDYASQPGKPPREDLK
VL: MDIQMTQTTSSLSASLGDRVTISCRASQDISNYLNWYQQKPDGTVKLLIYYTSILHSGVPSRFSGSGSGTDYSLTISNLEQEDFATYFCQQGNTLPWTFGCGTKLEIK
modifications: Asn-358 partially deamidated to Asp-358 and iso-Asp-358 in the preparations tested (extent differs by pool)
- Relative Potency (%) in apoptosis bioassay (Caspase-Glo 3/7, Daudi cells; EC50 of Reference Standard / EC50 of test sample); sample: QHP Eluate Pool, bench scale (16.5% pre-peak) [1]: 80%
- Relative Potency (%) in apoptosis bioassay (Caspase-Glo 3/7, Daudi cells; EC50 of Reference Standard / EC50 of test sample); sample: QHP Load Pool, bench scale (53.8% pre-peak) [1]: 52%
- Relative Potency (%) in apoptosis bioassay (Caspase-Glo 3/7, Daudi cells; EC50 of Reference Standard / EC50 of test sample); sample: QHP Eluate Pool, large scale (17% pre-peak) [2]: 75%
- Relative Potency (%) in apoptosis bioassay (Caspase-Glo 3/7, Daudi cells; EC50 of Reference Standard / EC50 of test sample); sample: QHP Load Pool, large scale (50.3% pre-peak) [2]: 51%
